From publication PMC10682658, “Revisiting bacterial cytolethal distending toxin structure and function” (Frontiers in Cellular and Infection Microbiology, 2023)

T1: NTA-labeled Cj-CdtA (polyhistidine-tagged Cj-CdtA labelled with NTA fluorescent dye) (Campylobacter jejuni, UniProt A1VXG4 20-268, NTA - Atto 647 N dye on the polyhistidine-tagged subunit)
T1 construct: source: recombinant, generated and purified as previously described (Eshraghi et al., 2010)
T1 sequence: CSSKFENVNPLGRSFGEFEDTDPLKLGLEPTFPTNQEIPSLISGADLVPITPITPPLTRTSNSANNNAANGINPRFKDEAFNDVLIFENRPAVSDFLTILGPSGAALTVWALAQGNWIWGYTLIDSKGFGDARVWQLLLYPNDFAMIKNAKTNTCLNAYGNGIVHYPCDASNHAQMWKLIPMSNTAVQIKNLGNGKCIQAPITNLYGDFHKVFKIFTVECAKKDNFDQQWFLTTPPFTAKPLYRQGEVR

B1: unlabeled Cj-CdtC with the polyhistidine tag removed (natural protein)
chain: TPTGDLKDFTEMVSIRSLETGIFLSAFRDTSKDPIDQNWNIKEIVLSDELKQKDKLADELPFGYVQFTNPKESDLCLAILEDGTFGAKSCQDDLKDGKLETVFSIMPTTTSAVQIRSLVLESDECIVTFFNPNIPIQKRFGIAPCTLDPIFFAEVNELMIITPPLTAATPLE
notes: source: recombinant, generated and purified as previously described (Eshraghi et al., 2010); polyhistidine removed with biotinylated thrombin
B2: unlabeled Cj-CdtA with the polyhistidine tag removed (natural protein)
chain: T1 sequence
notes: as for B1

Tests used:
[1] = molecular target: T1, NTA-labeled Cj-CdtA …; assay: MST; NTA dye-labeled polyhistidine-tagged subunit (0.1 μM) with unlabeled subunit without polyhistidine tag (0.02/0.04-20 μM), 1 h at 37°C, read at 37°C; Monolith NT.115; fraction bound fit to log [Cj-CDT subunit] vs response; KD of A + B* called apparent; details: both partners purified
[2] = molecular target: T2, NTA-labeled Cj-CdtB (polyhistidine-tagged Cj-CdtB labelled with NTA fluorescent dye) (Campylobacter jejuni, UniProt Q0PC57 1-265, NTA - Atto 647 N dye on the polyhistidine-tagged subunit); assay: as above; details: both partners purified
T2 construct: source: recombinant, generated and purified as previously described (Eshraghi et al., 2010)

| Binder | Kd [1] [nM] | first concentration of titrant yielding detectable signal above background [1] [µM] | Kd [2] [nM] | first concentration of titrant yielding detectable signal above background [2] [µM] |
| --- | --- | --- | --- | --- |
| B1 | 650 ± 100 | 0.31 | 480 ± 100 | 0.15 |
| B2 | – | – | > 20000 | 2 |
